In patent publication US20060288448:

Assays:
[1] = molecular target: T1, Angiogenin peptide (Bachem), P03950 (not fully specified)
T1 chain: ENGLPVHLDQSIFRR

β-casein, P02666 = molecular target: T2, β-casein, P02666
T2 chain: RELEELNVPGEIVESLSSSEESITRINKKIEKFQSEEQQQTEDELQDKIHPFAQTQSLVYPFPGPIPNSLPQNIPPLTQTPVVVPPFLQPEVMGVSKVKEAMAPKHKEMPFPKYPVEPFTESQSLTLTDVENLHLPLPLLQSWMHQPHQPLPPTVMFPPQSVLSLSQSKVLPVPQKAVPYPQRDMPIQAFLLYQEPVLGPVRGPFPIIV

Sequence of κ-casein, P02668 (P02668 22-190): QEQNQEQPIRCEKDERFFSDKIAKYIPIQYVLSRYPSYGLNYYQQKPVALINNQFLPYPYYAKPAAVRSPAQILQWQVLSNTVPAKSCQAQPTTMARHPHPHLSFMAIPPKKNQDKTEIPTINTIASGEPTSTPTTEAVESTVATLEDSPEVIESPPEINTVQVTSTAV

B1: iwm2s.pk017.h10 cathepsin L-like protease of western corn rootworm midgut (protein)
chain: MKLFILAAALIVATSANLGAFEKWTSFKATHNKSYNVIEDKLRFAVFQDNLKKIEEHNAKYESGEETYYLAVNKFADWSSAEFQAMLARQMANKPKQSFIAKHVADPNVQAVEEVDWRDSAVLGVKDQGQCGSCWAFSTTGSLEGQLAIHKNQRVPLSEQELVDCDTSRNAGCNGGLMTDAFNYVKRHGLSSESQYAYTGRDDRCKNVENKPLSSISGYVELETTEDALASAVASVGPVSIAVDADTWQLYGGGLFNNKNCRTNLNHGVLAVGYTKDAFIVKNSWGTSWGEQGYIRVARGENLCGINLMNSYPKL
proteolytic digestion, cleavage site mapping (κ-casein, P02668): κ-casein was also digested with c9 and h10 ... major detectable cleavage sites were observed after Ser54, Asp62, Serl25, and Met127

B2: iwm2s.pk015.c9 cathepsin L-like protease of western corn rootworm midgut (protein)
chain: MKLLILAATLIVAINANLSAFEQWTSFKATHNKFYNVIEDKLRFAVFQENLRKIDAHNAKYEKGEETYYMAVNKFADWSSAEFQAMLDRQMANKPKQSFIAKHVVDPNVQAVEEVDWRESAVLGVKDQGQCGSCWAFSTTGSLEGQLAIHKNQRVPLSEQELVDCDKVNDGCDGGLMTDAFFYIEHHGLSSEEQYPYTGVDGHCNHVKDKQVSSISGYVELDETESALADALANVGPVSIAVEADTWQFYSGGVFNNKNCGDALNHGVLAVGYTKDVFIVKNSWGTGWGEQGYIRVARGSNLCGINLMNSYPKL
proteolytic digestion for 30 or 60 min (LC-MS, N-terminal sequencing) [1]: after 30 min two distinct pairs of cleavage products were detected that corresponded to cleavage immediately N-terminal to Leu8 or to Gln10
proteolytic digestion time course (SDS-PAGE, N-terminal sequencing) (β-casein, P02666): The time course of β-casein digestion by c9 showed a major ˜19 kD digestion product (indicated by black arrowhead) by 2 minutes after addition of enzyme
proteolytic digestion, cleavage site mapping (κ-casein, P02668): κ-casein was also digested with c9 and h10 ... major detectable cleavage sites were observed after Ser54, Asp62, Serl25, and Met127
